The values that follow come from patent US20180346600A1 (AJOU UNIVERSITY INDUSTRY ACADEMIC COOPERATION FOUNDATION, published 2018).

What all share (experiment): flow cytometry of diploid yeast: MFI of Flag-tagged secreted FcCH3B held on displayed FcCH3A (anti-Flag mouse mAb and PE anti-mouse antibody), normalised to EW-RVT = 100 %
For assay [1], the target named is T1, displayed FcCH3A, EW-RVT (K360E/K409W), on yeast cell surface (human, UniProt P0DOX5 227-449 = IgG part).
T1 construct: also called EW-RVT CH3A chain (yeast)
T1 Fc: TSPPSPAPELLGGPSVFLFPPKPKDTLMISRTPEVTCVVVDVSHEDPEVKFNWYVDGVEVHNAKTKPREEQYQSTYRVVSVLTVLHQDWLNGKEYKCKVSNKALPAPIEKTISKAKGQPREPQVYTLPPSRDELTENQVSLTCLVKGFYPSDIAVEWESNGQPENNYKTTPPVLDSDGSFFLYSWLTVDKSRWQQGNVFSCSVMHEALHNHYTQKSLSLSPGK

The target in assay [2] is T2, displayed FcCH3A, A108 (K370E/K409W), on yeast cell surface (human, UniProt P0DOX5 227-449 = IgG part).
T2 construct: also called A108 CH3A chain (yeast)
T2 Fc: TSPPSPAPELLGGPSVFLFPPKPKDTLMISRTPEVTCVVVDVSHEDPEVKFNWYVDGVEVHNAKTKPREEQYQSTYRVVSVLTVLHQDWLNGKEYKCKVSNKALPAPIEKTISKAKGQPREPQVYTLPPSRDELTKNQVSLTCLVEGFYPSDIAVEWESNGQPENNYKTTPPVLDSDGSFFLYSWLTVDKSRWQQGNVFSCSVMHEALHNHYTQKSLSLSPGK

Assay [3] concerns the target T3, displayed FcCH3A, B135 (D399L/K409W), on yeast cell surface (human, UniProt P0DOX5 227-449 = IgG part).
T3 construct: also called B135 CH3A chain (yeast)
T3 Fc: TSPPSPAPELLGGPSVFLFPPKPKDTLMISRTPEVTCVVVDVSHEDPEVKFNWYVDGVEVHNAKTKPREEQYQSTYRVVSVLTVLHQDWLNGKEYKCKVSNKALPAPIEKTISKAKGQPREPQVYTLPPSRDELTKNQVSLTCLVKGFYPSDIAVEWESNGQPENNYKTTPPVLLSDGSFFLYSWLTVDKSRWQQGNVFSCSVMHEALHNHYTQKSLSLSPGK

Assay [4] has as its target T4, displayed FcCH3A, A107 (K370E/K409W), on yeast cell surface (human, UniProt P0DOX5 227-449 = IgG part).
T4 construct: also called A107 CH3A chain (yeast)
T4 Fc: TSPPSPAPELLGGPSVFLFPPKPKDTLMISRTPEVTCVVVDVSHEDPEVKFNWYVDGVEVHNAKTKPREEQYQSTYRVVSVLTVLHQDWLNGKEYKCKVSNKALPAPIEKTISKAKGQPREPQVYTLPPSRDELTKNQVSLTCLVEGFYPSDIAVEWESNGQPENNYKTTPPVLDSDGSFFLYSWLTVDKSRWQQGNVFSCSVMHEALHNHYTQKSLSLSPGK

Assay [5] concerns the target T5, displayed FcCH3A, A146 (K370D/K409W), on yeast cell surface (human, UniProt P0DOX5 227-449 = IgG part).
T5 construct: also called A146 CH3A chain (yeast)
T5 Fc: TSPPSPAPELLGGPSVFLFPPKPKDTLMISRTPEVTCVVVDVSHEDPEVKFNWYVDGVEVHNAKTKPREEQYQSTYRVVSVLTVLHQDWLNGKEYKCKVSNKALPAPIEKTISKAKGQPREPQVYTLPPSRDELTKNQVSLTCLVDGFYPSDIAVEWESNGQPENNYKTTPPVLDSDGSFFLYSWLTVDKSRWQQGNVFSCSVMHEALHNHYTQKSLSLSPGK

The target of assay [6] is T6, displayed FcCH3A, B121 (D399E/K409W), on yeast cell surface (human, UniProt P0DOX5 227-449 = IgG part).
T6 construct: also called B121 CH3A chain (yeast)
T6 Fc: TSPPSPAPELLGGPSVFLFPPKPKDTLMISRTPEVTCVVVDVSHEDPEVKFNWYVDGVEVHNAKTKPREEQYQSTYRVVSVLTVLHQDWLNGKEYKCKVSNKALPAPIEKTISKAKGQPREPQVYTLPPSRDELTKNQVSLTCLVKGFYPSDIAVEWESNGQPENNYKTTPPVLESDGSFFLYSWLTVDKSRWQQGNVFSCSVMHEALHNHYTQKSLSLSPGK

Assay [7] addresses T7, displayed FcCH3A, B168 (D399L/K409W), on yeast cell surface (human, UniProt P0DOX5 227-449 = IgG part).
T7 construct: also called B168 CH3A chain (yeast)
T7 Fc: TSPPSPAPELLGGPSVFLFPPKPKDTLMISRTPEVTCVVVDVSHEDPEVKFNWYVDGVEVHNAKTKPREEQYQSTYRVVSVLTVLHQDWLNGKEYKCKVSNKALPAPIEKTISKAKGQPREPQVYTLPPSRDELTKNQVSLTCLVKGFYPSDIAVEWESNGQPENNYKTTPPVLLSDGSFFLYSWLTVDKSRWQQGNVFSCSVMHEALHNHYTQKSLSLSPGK

The target of assay [8] is T8, A107w/oW-VT (displayed FcCH3A on yeast cell surface).
T8 construct: also called A107w/oW-VT CH3A chain (yeast), K370E
T8 Fc: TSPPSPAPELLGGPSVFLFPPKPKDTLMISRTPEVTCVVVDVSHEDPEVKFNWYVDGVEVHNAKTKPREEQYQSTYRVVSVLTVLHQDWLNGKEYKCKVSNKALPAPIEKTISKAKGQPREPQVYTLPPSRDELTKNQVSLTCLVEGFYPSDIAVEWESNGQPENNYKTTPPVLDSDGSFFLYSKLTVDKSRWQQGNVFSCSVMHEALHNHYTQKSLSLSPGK
The text has this: FACS was sequentially performed four times. […] Table 9 below summarizes the mutation pairs introduced into individual clones selected from the respective LibA2 and LibB2 libraries.

Assay [9] concerns the target T9, displayed FcCH3A, A109 (K370M/K409W), on yeast cell surface (human, UniProt P0DOX5 227-449 = IgG part).
T9 construct: also called A109 CH3A chain (yeast)
T9 Fc: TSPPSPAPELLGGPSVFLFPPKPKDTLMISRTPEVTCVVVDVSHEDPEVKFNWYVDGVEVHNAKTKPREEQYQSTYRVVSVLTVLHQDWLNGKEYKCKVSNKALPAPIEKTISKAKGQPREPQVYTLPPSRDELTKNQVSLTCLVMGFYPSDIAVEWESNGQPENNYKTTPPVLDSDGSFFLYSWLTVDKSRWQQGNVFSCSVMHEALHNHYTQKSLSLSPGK

B1: secreted FcCH3B, EW-RVT (Q347R/D399V/F405T), from yeast (other)
chain: TSPPSPAPELLGGPSVFLFPPKPKDTLMISRTPEVTCVVVDVSHEDPEVKFNWYVDGVEVHNAKTKPREEQYQSTYRVVSVLTVLHQDWLNGKEYKCKVSNKALPAPIEKTISKAKGQPREPRVYTLPPSRDELTKNQVSLTCLVKGFYPSDIAVEWESNGQPENNYKTTPPVLVSDGSFTLYSKLTVDKSRWQQGNVFSCSVMHEALHNHYTQKSLSLSPGK
notes: also called EW-RVT CH3B chain (yeast); not shown: flag-tag
As to B1, in [1], the binding result is “binds”.

B2: secreted FcCH3B, A108 (E357I/S364T/D399V/F405T), from yeast (other)
chain: TSPPSPAPELLGGPSVFLFPPKPKDTLMISRTPEVTCVVVDVSHEDPEVKFNWYVDGVEVHNAKTKPREEQYQSTYRVVSVLTVLHQDWLNGKEYKCKVSNKALPAPIEKTISKAKGQPREPQVYTLPPSRDILTKNQVTLTCLVKGFYPSDIAVEWESNGQPENNYKTTPPVLVSDGSFTLYSKLTVDKSRWQQGNVFSCSVMHEALHNHYTQKSLSLSPGK
notes: also called A108 CH3B chain (yeast); not shown: flag-tag
Regarding B2, the binding result in assay [2] is “binds”.

B3: secreted FcCH3B, B135 (K392S/K409L/D399V/F405T), from yeast (other)
chain: TSPPSPAPELLGGPSVFLFPPKPKDTLMISRTPEVTCVVVDVSHEDPEVKFNWYVDGVEVHNAKTKPREEQYQSTYRVVSVLTVLHQDWLNGKEYKCKVSNKALPAPIEKTISKAKGQPREPQVYTLPPSRDELTKNQVSLTCLVKGFYPSDIAVEWESNGQPENNYSTTPPVLVSDGSFTLYSLLTVDKSRWQQGNVFSCSVMHEALHNHYTQKSLSLSPGK
notes: also called B135 CH3B chain (yeast); not shown: flag-tag
In the case of B3, the binding result in [3] is “binds”.

B4: secreted FcCH3B, A107 (E357N/D399V/F405T), from yeast (other)
chain: TSPPSPAPELLGGPSVFLFPPKPKDTLMISRTPEVTCVVVDVSHEDPEVKFNWYVDGVEVHNAKTKPREEQYQSTYRVVSVLTVLHQDWLNGKEYKCKVSNKALPAPIEKTISKAKGQPREPQVYTLPPSRDNLTKNQVSLTCLVKGFYPSDIAVEWESNGQPENNYKTTPPVLVSDGSFTLYSKLTVDKSRWQQGNVFSCSVMHEALHNHYTQKSLSLSPGK
notes: also called A107 CH3B chain (yeast); not shown: flag-tag
In the case of B4, in assay [4], the binding result is given as “binds”.

B5: secreted FcCH3B, A146 (E357M/D399V/F405T), from yeast (other)
chain: TSPPSPAPELLGGPSVFLFPPKPKDTLMISRTPEVTCVVVDVSHEDPEVKFNWYVDGVEVHNAKTKPREEQYQSTYRVVSVLTVLHQDWLNGKEYKCKVSNKALPAPIEKTISKAKGQPREPQVYTLPPSRDMLTKNQVSLTCLVKGFYPSDIAVEWESNGQPENNYKTTPPVLVSDGSFTLYSKLTVDKSRWQQGNVFSCSVMHEALHNHYTQKSLSLSPGK
notes: also called A146 CH3B chain (yeast); not shown: flag-tag
Take B5: the binding result in [5] was “binds”.

B6: secreted FcCH3B, B121 (K392E/D399V/F405T), from yeast (other)
chain: TSPPSPAPELLGGPSVFLFPPKPKDTLMISRTPEVTCVVVDVSHEDPEVKFNWYVDGVEVHNAKTKPREEQYQSTYRVVSVLTVLHQDWLNGKEYKCKVSNKALPAPIEKTISKAKGQPREPQVYTLPPSRDELTKNQVSLTCLVKGFYPSDIAVEWESNGQPENNYETTPPVLVSDGSFTLYSKLTVDKSRWQQGNVFSCSVMHEALHNHYTQKSLSLSPGK
notes: also called B121 CH3B chain (yeast); not shown: flag-tag
Turning to B6, the binding result in assay [6] is “binds”.

B7: secreted FcCH3B, B168 (K392G/K409M/D399V/F405T), from yeast (other)
chain: TSPPSPAPELLGGPSVFLFPPKPKDTLMISRTPEVTCVVVDVSHEDPEVKFNWYVDGVEVHNAKTKPREEQYQSTYRVVSVLTVLHQDWLNGKEYKCKVSNKALPAPIEKTISKAKGQPREPQVYTLPPSRDELTKNQVSLTCLVKGFYPSDIAVEWESNGQPENNYGTTPPVLVSDGSFTLYSMLTVDKSRWQQGNVFSCSVMHEALHNHYTQKSLSLSPGK
notes: also called B168 CH3B chain (yeast); not shown: flag-tag
Consider B7, for which the binding result in assay [7] is given as “binds”.

B8: A107w/oW-VT (secreted FcCH3B from yeast) (other)
secreted Fc chain (hinge-CH2-CH3B): TSPPSPAPELLGGPSVFLFPPKPKDTLMISRTPEVTCVVVDVSHEDPEVKFNWYVDGVEVHNAKTKPREEQYQSTYRVVSVLTVLHQDWLNGKEYKCKVSNKALPAPIEKTISKAKGQPREPQVYTLPPSRDNLTKNQVSLTCLVKGFYPSDIAVEWESNGQPENNYKTTPPVLDSDGSFFLYSKLTVDKSRWQQGNVFSCSVMHEALHNHYTQKSLSLSPGK
notes: also called A107w/oW-VT CH3B chain (yeast), E357N
Turning to B8, the binding result in assay [8] was “binds”.

B9: secreted FcCH3B, A109 (E357M/S364W/D399V/F405T), from yeast (other)
chain: TSPPSPAPELLGGPSVFLFPPKPKDTLMISRTPEVTCVVVDVSHEDPEVKFNWYVDGVEVHNAKTKPREEQYQSTYRVVSVLTVLHQDWLNGKEYKCKVSNKALPAPIEKTISKAKGQPREPQVYTLPPSRDMLTKNQVWLTCLVKGFYPSDIAVEWESNGQPENNYKTTPPVLVSDGSFTLYSKLTVDKSRWQQGNVFSCSVMHEALHNHYTQKSLSLSPGK
notes: also called A109 CH3B chain (yeast); not shown: flag-tag
On to B9, for which the binding result in [9] is recorded as “binds”.
